The target of experiment [1] is T1, placental growth factor (PLGF) (UniProt P49763-2 21-149, limits assumed).
T1 construct: also called P1GF
T1 sequence (looked up): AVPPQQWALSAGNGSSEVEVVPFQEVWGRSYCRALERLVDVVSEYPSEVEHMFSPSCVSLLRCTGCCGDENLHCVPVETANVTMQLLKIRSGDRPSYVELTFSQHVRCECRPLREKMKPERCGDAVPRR
Kind of experiment: ligand-receptor binding competition assay, PlGF binding to VEGFR1.

A further experiment has as its target T2, CD-20 (UniProt P11836 1-297, limits assumed).
T2 construct: whole, on cells
T2 sequence (looked up): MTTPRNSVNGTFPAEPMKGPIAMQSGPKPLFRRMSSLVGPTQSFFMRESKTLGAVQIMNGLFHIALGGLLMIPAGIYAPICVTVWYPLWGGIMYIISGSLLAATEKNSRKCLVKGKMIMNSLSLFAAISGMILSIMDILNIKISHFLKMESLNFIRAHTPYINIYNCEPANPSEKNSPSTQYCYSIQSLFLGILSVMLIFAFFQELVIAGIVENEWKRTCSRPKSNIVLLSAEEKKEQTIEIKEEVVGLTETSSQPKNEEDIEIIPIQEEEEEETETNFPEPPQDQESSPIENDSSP
Kind of experiment: flow cytometry on cells carrying the target, 2 ug/mL; parent antibody. Background: A flow cytometer gives signals particle by particle.

Experiment [2] has as its target T3, CD-19 (human, UniProt P15391 20-556).
T3 construct: whole, on cells
T3 sequence (looked up): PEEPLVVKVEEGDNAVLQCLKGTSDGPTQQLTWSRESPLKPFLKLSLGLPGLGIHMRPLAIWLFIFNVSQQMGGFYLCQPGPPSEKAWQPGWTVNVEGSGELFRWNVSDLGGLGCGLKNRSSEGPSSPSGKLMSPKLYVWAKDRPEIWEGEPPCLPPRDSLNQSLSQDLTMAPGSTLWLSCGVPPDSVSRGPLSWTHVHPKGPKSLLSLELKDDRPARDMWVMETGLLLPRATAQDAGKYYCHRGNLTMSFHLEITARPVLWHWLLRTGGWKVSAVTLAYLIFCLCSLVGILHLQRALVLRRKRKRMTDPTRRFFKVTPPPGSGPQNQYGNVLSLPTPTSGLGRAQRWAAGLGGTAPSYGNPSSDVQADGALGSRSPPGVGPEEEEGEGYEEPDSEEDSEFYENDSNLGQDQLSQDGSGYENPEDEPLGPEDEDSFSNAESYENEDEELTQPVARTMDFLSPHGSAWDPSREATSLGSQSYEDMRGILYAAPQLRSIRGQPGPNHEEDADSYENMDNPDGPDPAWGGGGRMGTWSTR
Kind of experiment: flow cytometry on cells carrying the target, 2 ug/mL; N-terminal VD.
Procedure: (§1) Stable cell lines overexpressing a cell-surface antigen of interest or human tumor cell lines were harvested from tissue culture flasks and resuspended in phosphate buffered saline (PBS) containing 5% fetal bovine serum (PBS/FBS). Prior to staining, human tumor cells were incubated on ice with (100 μl) human IgG at 5 μg/ml in PBS/FCS. 1-5×10⁵ cells were incubated with antibody or DVD-Ig (2 μg/mL) in PBS/FBS for 30-60 minutes on ice. […] After 30 minutes incubation on ice, cells were washed twice and resuspended in PBS/FBS. Fluorescence was measured using a Becton Dickinson FACSCalibur (Becton Dickinson, San Jose, Calif.).
(§2) The geometric mean is the n root of the multiplication product of n fluorescent signals (a1×a2×a3 . . . an). With log-transformed data the geometric mean is used to normalize the weighting of the data distribution.

Experiment [3] deals with T4, CD-80 (UniProt P33681 35-288, limits assumed).
T4 construct: whole, on cells; also called B7-1
T4 sequence (looked up): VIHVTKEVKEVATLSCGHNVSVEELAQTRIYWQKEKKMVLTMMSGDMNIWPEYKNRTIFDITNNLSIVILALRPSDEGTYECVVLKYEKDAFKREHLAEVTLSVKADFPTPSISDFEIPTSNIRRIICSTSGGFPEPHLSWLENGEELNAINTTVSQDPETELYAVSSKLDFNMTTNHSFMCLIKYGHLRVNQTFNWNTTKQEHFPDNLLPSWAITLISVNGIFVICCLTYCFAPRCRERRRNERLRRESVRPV
Kind of experiment: flow cytometry on cells carrying the target, 2 ug/mL; C-terminal VD.
Procedure: as §1, §2

Experiment [4] deals with T4, CD-80. Kind of experiment: flow cytometry on cells carrying the target, 2 ug/mL; parent antibody.
Procedure: as §1, §2
The target of experiment [5] is T3, CD-19. The description is as above.
Procedure: as §1, §2
The next experiment addresses T5, recombinant human HGF (human, UniProt P14210 32-728).
T5 construct: The target there is entered as this HGF; also called hepatocyte growth factor
Kind of experiment: competition ELISA: antibody co-incubated with 2 nM soluble c-Met Fc on coated HGF (competitor c-Met Fc).

T5 sequence (P14210 32-728 limits assumed): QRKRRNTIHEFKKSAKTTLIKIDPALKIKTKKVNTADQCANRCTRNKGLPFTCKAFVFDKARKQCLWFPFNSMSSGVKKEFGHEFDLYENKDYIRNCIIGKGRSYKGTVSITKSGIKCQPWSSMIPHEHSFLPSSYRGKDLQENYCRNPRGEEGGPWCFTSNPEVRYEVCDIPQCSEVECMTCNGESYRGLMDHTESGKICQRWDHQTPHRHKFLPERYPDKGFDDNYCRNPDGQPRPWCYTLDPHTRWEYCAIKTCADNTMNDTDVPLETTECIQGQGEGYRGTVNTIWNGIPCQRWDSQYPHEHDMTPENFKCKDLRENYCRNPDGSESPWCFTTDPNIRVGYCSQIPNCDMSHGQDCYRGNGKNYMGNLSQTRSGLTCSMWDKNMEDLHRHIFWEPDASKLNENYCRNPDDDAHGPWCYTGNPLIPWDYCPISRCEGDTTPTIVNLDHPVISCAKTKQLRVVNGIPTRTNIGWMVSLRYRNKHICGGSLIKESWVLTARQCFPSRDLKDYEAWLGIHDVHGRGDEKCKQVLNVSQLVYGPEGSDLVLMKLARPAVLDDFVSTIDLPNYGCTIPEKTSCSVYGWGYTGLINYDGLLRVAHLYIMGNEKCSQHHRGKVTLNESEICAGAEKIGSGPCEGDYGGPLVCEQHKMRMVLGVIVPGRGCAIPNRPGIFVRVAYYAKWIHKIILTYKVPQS
Procedure for CD-20: as §1, §2
Procedure for recombinant human HGF: The wells were washed three times in PBST (PBS containing 0.05% Tween 20), and 100 μl of ULTRA-TMB ELISA (Pierce) were added per well. […] The data were evaluated by calculating the percentage inhibition compared with the maximal signal (control antibody or no antibody added) and the IC₅₀ values were calculated.

B1: AB047 (antibody, human IgG1, kappa, V domains shown)
VH: QVQLQQSGAELVKPGASVKISCKASGYTFTDYYINWVKLAPGQGLEWIGWIYPGSGNTKYNEKFKGKATLTIDTSSSTAYMQLSSLTSEDTAVYFCVRDSPFFDYWGQGTLLTVSS
VL: DIVLTQSPDSLAVSLGERVTMNCKSSQSLLNSGMRKSFLAWYQQKPGQSPKLLIYWASTRESGVPDRFTGSGSGTDFTLTISSVQAEDVAVYYCKQSYHLFTFGSGTKLEIKR
notes: Parent anti-PlGF antibody; also called AB047VH
As for B1, the IC50 in experiment [1] is 3.07 nM.

B2: AB001 (antibody, human IgG1, kappa, V domains shown)
VH: QVQLQQPGAELVKPGASVKMSCKASGYTFTSYNMHWVKQTPGRGLEWIGAIYPGNGDTSYNQKFKGKATLTADKSSSTAYMQLSSLTSEDSAVYYCARSTYYGGDWYFNVWGAGTTVTVSA
VL: QIVLSQSPAILSPSPGEKVTMTCRASSSVSYIHWFQQKPGSSPKPWIYATSNLASGVPVRFSGSGSGTSYSLTISRVEAEDAATYYCQQWTSNPPTFGGGTKLEIKR
notes: Parent antibody; also called anti-CD-20 parent antibody
As to B2, the “FACS Geometric Mean” value in the experiment with CD-20 stood at 95.8.

B3: DVD002 (bispecific antibody, human IgG1, kappa)
heavy: not shown
light: DILLTQTPASLAVSLGQRATISCKASQSVDYDGDSYLNWYQQIPGQPPKLLIYDASNLVSGIPPRFSGSGSGTDFTLNIHPVEKVDAATYHCQQSTEDPWTFGGGTKLEIKRTVAAPQIVLSQSPAILSPSPGEKVTMTCRASSSVSYIHWFQQKPGSSPKPWIYATSNLASGVPVRFSGSGSGTSYSLTISRVEAEDAATYYCQQWTSNPPTFGGGTKLEIKRTVAAPSVFIFPPSDEQLKSGTASVVCLLNNFYPREAKVQWKVDNALQSGNSQESVTEQDSKDSTYSLSSTLTLSKADYEKHKVYACEVTHQGLSSPVTKSFNRGEC
notes: DVD-Ig; outer AB006 (CD-19), inner AB001 (CD-20); also called CD-19 and CD-20 DVD-Ig
On to B3, for which the “FACS Geometric Mean N-terminal” value with CD-19 [2] was found to be 1100.

B4: DVD005 (bispecific antibody, human IgG1, lambda)
heavy: not shown
light: QIVLSQSPAILSPSPGEKVTMTCRASSSVSYIHWFQQKPGSSPKPWIYATSNLASGVPVRFSGSGSGTSYSLTISRVEAEDAATYYCQQWTSNPPTFGGGTKLEIKRTVAAPESALTQPPSVSGAPGQKVTISCTGSTSNIGGYDLHWYQQLPGTAPKLLIYDINKRPSGISDRFSGSKSGTAASLAITGLQTEDEADYYCQSYDSSLNAQVFGGGTRLTVLGQPKAAPSVTLFPPSSEELQANKATLVCLISDFYPGAVTVAWKADSSPVKAGVETTTPSKQSNNKYAASSYLSLTPEQWKSHRSYSCQVTHEGSTVEKTVAPTECS
notes: DVD-Ig; outer AB001 (CD-20), inner AB007 (CD-80); also called CD-20 and CD-80 DVD-Ig
Turning to B4, in the experiment with CD-80 [3], the “FACS Geometric Mean C-terminal” value came to 6.

B5: AB007 (antibody, human IgG1, lambda, V domains shown)
VH: QVQLQESGPGLVKPSETLSLTCAVSGGSISGGYGWGWIRQPPGKGLEWIGSFYSSSGNTYYNPSLKSQVTISTDTSKNQFSLKLNSMTAADTAVYYCVRDRLFSVVGMVYNNWFDVWGPGVLVTVSS
VL: ESALTQPPSVSGAPGQKVTISCTGSTSNIGGYDLHWYQQLPGTAPKLLIYDINKRPSGISDRFSGSKSGTAASLAITGLQTEDEADYYCQSYDSSLNAQVFGGGTRLTVLG
notes: Parent antibody; also called anti-CD-80 parent antibody
B5: the “FACS Geometric Mean” value in the experiment with CD-80 [4] came to 25.4.

B6: AB006 (antibody, human IgG1, kappa, V domains shown)
VH: QVQLQQSGAELVRPGSSVKISCKASGYAFSSYWMNWVKQRPGQGLEWIGQIWPGDGDTNYNGKFKGKATLTADESSSTAYMQLSSLASEDSAVYFCARRETTTVGRYYYAMDYWGQGTSVTVSS
VL: DILLTQTPASLAVSLGQRATISCKASQSVDYDGDSYLNWYQQIPGQPPKLLIYDASNLVSGIPPRFSGSGSGTDFTLNIHPVEKVDAATYHCQQSTEDPWTFGGGTKLEIKR
notes: Parent antibody
In the case of B6, in the experiment with CD-19 [5], the “FACS Geometric Mean” value came out at 979.

B7: AB012 (anti-HGF (seq. 1) parent antibody) (antibody, human IgG1, kappa, V domains shown)
VH: QVQLVESGGGLVKPGGSLRLSCAASGFTFSDYYMSWIRQAPGKGLEWVSYISSSGSTIYYADSVKGRFTISRDNAKNSLYLQMNSLRAEDTAVYYCARDEYNSGWYVLFDYWGQGTLVTVSS
VL: DIQMTQSPSSVSASVGDRVTITCRASQGISSWLAWYQQKPGKAPNLLIYEASSLQSGVPSRFGGSGSGTDFTLTISSLQPEDFATYYCQQANGFPWTFGQGTKVEIKR
notes: also called AB012VH/AB012VL
For the molecule B7, in the experiment with recombinant human HGF, the IC50 was determined as 0.18 nM.

The IC50 is the midpoint of a concentration-inhibition curve.
